The source of these data is patent publication US20120258107A1.

Assay [1] addresses rat CD163 on cells (rat). Nature of the assay: flow cytometry of rat peritoneal macrophages, negative control staining with IgG-FITC. (In general: In flow cytometry, cells or beads pass a laser one at a time.)
Assay [2] has as its target human CD163 on cells (human) (UniProt Q86VB7). Nature of the assay: 125I-labelled mAb on stable CD163 transfected Flp-In CHO cells (1.23% on non-transfected cells).
Assay [3] deals with rat CD163 on cells (rat). Nature of the assay: cell-based or functional assay.
Assay [4] deals with human CD163 on cells (human) (UniProt Q86VB7). Nature of the assay: flow cytometry, whole blood, citrate as anticoagulant.
Chain of human CD163 on cells (human) (Q86VB7 42-1156): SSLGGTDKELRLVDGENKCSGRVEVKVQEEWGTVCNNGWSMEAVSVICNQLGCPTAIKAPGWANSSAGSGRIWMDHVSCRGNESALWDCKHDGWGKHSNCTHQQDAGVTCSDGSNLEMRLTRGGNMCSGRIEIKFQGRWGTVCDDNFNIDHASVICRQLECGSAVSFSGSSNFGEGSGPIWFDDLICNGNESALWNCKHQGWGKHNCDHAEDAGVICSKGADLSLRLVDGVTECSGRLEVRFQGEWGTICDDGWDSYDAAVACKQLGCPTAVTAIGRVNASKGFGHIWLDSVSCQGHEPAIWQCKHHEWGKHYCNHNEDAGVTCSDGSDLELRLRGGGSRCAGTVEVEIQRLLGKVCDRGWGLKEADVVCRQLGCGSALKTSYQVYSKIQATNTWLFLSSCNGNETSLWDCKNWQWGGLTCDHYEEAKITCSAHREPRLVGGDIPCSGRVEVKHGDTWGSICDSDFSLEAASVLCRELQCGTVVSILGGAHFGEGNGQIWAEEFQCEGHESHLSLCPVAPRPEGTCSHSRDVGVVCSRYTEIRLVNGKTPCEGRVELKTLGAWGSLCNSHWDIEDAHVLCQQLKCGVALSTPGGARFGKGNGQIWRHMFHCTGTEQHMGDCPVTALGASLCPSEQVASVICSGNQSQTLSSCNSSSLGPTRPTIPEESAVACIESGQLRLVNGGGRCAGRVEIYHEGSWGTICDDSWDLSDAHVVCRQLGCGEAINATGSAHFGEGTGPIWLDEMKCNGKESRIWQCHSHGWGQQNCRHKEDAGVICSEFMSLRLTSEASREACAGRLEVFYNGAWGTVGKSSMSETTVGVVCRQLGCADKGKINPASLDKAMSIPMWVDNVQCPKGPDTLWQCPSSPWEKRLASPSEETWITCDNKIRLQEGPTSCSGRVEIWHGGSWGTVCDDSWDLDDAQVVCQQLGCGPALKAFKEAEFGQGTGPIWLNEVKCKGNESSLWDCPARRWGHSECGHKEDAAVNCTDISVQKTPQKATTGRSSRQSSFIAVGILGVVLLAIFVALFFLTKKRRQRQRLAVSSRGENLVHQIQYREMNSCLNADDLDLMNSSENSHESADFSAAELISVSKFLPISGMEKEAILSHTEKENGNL
Assay [5] deals with purified recombinant CD163 immobilized on a Biacore chip (human) (UniProt Q86VB7). Put plainly: SPR, immobilized CD163, 2 mM free Ca2+. A general note: SPR reads the build-up and loss of mass on a sensor chip optically.
Chain of purified recombinant CD163 immobilized on a Biacore chip (human) (Q86VB7 42-1050 limits assumed): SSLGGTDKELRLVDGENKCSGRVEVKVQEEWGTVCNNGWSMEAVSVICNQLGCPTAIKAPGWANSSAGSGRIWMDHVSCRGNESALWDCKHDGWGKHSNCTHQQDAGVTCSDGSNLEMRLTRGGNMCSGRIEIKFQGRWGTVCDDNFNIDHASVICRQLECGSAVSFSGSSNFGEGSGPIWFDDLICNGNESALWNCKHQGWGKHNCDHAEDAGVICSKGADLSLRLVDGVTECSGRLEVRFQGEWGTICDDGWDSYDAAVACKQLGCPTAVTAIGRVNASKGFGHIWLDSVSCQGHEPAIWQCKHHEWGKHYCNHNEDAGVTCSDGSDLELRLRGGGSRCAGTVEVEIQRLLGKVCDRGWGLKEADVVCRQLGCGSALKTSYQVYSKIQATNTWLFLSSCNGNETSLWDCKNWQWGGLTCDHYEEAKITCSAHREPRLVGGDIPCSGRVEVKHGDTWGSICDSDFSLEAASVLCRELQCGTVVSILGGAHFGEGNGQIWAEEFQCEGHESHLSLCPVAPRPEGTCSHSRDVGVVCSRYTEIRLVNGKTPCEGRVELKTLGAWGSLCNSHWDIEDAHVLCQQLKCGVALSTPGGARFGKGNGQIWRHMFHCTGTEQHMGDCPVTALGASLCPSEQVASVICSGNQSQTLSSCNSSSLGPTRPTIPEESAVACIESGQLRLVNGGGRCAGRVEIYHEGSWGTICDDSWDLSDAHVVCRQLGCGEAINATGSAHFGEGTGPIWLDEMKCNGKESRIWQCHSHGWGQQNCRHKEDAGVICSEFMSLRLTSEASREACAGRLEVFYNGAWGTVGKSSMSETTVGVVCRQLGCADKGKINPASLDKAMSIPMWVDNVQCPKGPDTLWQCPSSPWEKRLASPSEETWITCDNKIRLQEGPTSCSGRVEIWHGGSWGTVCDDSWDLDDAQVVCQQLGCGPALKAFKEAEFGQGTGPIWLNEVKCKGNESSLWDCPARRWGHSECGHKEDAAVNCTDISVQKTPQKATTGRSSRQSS
In assay [6] the target is human CD163 on cells (human) (UniProt Q86VB7). Put plainly: quantitative flow cytometry, whole blood, heparin.
Assay [7] has the same target. Nature of the assay: quantitative flow cytometry, Quantibrite PE beads, EDTA whole blood.
Assay [8] has the same target. Nature of the assay: flow cytometry, whole blood, heparin as anticoagulant.
Assay [9] shares this target. Nature of the assay: flow cytometry, R-PE mAb, freshly drawn EDTA whole blood.
The target is the same in assay [10]. Put plainly: flow cytometry, PBMC after density gradient centrifugation.
Assay [11] shares this target. Put plainly: 125I-labelled mAb on stable CD163 transfected Flp-In CHO cells (1.47% on non-transfected cells).
Assay [12] has the same target. Put plainly: quantitative flow cytometry, whole blood, EDTA.
Assay [13] has the same target. Put plainly: quantitative flow cytometry, PBMC after density gradient centrifugation.
The target is the same in assay [14]. Put plainly: flow cytometry, whole blood, EDTA as anticoagulant.
For assay [15] the target is unchanged. Put plainly: quantitative flow cytometry, whole blood, citrate.
For assay [16] the target is unchanged. Nature of the assay: 125I-labelled mAb on stable CD163 transfected Flp-In CHO cells (0.97% on non-transfected cells).
The target in assay [17] is rat CD163 on cells (rat). Put plainly: flow cytometry, rat peritoneal macrophages, ED2-FITC.
The target in assay [18] is rat CD163 on cells (rat). Put plainly: flow cytometry of rat peritoneal macrophages, anti-rat CD163-FITC (ED2) against anti-rat CD172a-PE (ED9).
In assay [19] the target is human CD163 on cells (human) (UniProt Q86VB7). Put plainly: flow cytometry on peripheral blood dendritic cells, negative staining control.
Assay [20] shares this target. Put plainly: quantitative flow cytometry, background staining, EDTA whole blood.
For assay [21] the target is unchanged. Nature of the assay: flow cytometry, CD163low subset of peripheral blood dendritic cells.
The target is the same in assay [22]. Nature of the assay: flow cytometry, PE mAb, CD14-ILT3+ dendritic cells in whole blood.
In assay [23] the target is purified recombinant CD163 immobilized on a Biacore chip (human) (UniProt Q86VB7). Nature of the assay: SPR, immobilized CD163, 10 mM EDTA.
In assay [24] the target is human CD163 on cells (human) (UniProt Q86VB7). Put plainly: flow cytometry, CD163high subset of peripheral blood dendritic cells.
Assay [25] shares this target. Put plainly: flow cytometry, CD14+ILT3+HLA-DR+ monocytes stained positive for CD163.
Assay [26] shares this target. Put plainly: flow cytometry, PE mAb, peripheral blood dendritic cells.

As to IgG-FITC (antibody), in the assay with rat CD163 on cells (rat) [1], the % of cells in the lower right quadrant (IgG FITC positive) was 0.41% and the % of cells in the upper right quadrant (IgG FITC positive, FL2 positive) worked out at 0.06%.
“Anti-CD163 (GHI/61) (antibody, non-transfected cells)”: the percentage of cell-associated radioactivity in assay [2] turned out to be 1.23%.
Turning to ED2-NHS-dexamethasone (antibody), in the assay with rat CD163 on cells (rat) [3], the level of TNFα suppression after 15 minutes of incubation, LPS stimulated rat spleen cells, against free dexamethasone is 2 fold and the suppressive effect on LPS mediated TNFα in vitro, rat spleen cells, against free dexamethasone turned out to be 2 fold.
As for Anti-CD163 (RM3/1) (antibody), the fraction of CD14+ monocytes stained positive for CD163 in assay [4] came out at 12.5%; in assay [8], 3.33%; in assay [9], 0.33%; in assay [10] it was 2.5%; in [14], 0.33%. Also, in assay [5], the Kd (usually the free concentration of one partner at which half of the binding sites on the other are occupied at equilibrium, for simple one-to-one binding) was 0.6 nM. The density of CD163 receptors per monocyte (PE antibodies bound per cell) in assay [6] came to 210 per monocyte; in assay [7] it was 101 per monocyte; in assay [12], 86 per monocyte; in [13] it was 132 per monocyte; in assay [15], 207 per monocyte. In [11], the percentage of cell-associated radioactivity is 7.77%.
As to Anti-CD163 (R-20) (antibody), the fraction of CD14+ monocytes stained positive for CD163 turned out to be 74.7% in assay [4]; 63% in [8]; 75.9% in assay [9]; 54.4% in assay [10]; 75.9% in assay [14]. The density of CD163 receptors per monocyte (PE antibodies bound per cell) in [6] was determined as 3020 per monocyte; in [7] it was 1650 per monocyte; in assay [12] it was 1760 per monocyte; in [13], 837 per monocyte; in assay [15], 1990 per monocyte. Also, in [16], the percentage of cell-associated radioactivity was determined as 19%.
As for Anti-rat CD163 ED2 (antibody), the fraction of peritoneal macrophages CD163 positive with rat CD163 on cells (rat) [17] is 42%. For the same substance, in the assay with rat CD163 on cells (rat) [18], the % of cells in the lower right quadrant (CD172a PE negative, CD163 FITC positive) turned out to be 0.01% and the % of cells in the upper right quadrant (CD172a PE positive, CD163 FITC positive) is 42.9%.
ED2-MVCP-dexamethasone (antibody): the suppressive effect on LPS mediated TNFα in vitro, rat spleen cells, against free dexamethasone in the assay with rat CD163 on cells (rat) [3] was 3 fold.
The substance “R-PE-conjugated Mouse IgG1, k isotype control (MCG1) (antibody)” registered an MFI in assay [19] of 1.23 MFI. The substance further displayed a density of CD163 receptors per monocyte (PE antibodies bound per cell) in [20] of 94 per monocyte.
Regarding Anti-CD163 (GHI/61) (antibody), the fraction of CD14+ monocytes stained positive for CD163 in assay [4] is 64.4%; in assay [8], 0.82%; in assay [9], 63%; in assay [10] it was 1.26%; in assay [14] it was 63%. Besides, the MFI turned out to be 4.2 MFI in [21], 34.6 MFI in [24] and 22.3 in assay [26]. Moreover, the density of CD163 receptors per monocyte (PE antibodies bound per cell) in assay [6] was found to be 58.3 per monocyte; in assay [7] it was 1030 per monocyte; in assay [12], 1030 per monocyte; in [13], 108 per monocyte; in assay [15], 1150 per monocyte. This substance came in with a fraction of peripheral blood dendritic cells recognized in assay [22] of 10.5%. For the same substance, in assay [23], the Kd is 29 nM. Further, the percent of cells stained positive in assay [25] worked out at 88%.
